In patent US6423518B1, “Design and production of mutant 2,5-diketo-D-gluconic acid reductase enzymes with altered cofactor dependency” (Rutgers, the State University, priority 2000, dated 2002):
Positions count from the first letter of the chain named. Names may count otherwise.

B1: 2,5-diketo-D-gluconic acid reductase A (Corynebacterium sp., wild type SEQ ID NO:1) variant K232M (Corynebacterium sp. ATCC 31090; K232M) (protein)
chain: MTVPSIVLNDGNSIPQLGYGVFKVPPADTQRAVEEALEVGYRHIDTAAIYGNEEGVGAAIAASGIARDDLFITTKLWNDRHDGDEPAAAIAESLAKLALDQVDLYLVHWPTPAADNYVHAWEKMIELRAAGLTRSIGVSNHLVPHLERIVAATGVVPAVNQIELHPAYQQREITDWAAAHDVKIESWGPLGQGKYDLFGAEPVTAAAAAHGKTPAQAVLRWHLQKGFVVFPMSVRRERLEENLDVFDFDLTDTEIAAIDAMDPGDGSGRVSAHPDEVD
notes: GroES fragment (N); made in house; host or cells: E. coli JM109
B2: 2,5-diketo-D-gluconic acid reductase A (Corynebacterium sp., wild type SEQ ID NO:1) variant R238H (Corynebacterium sp. ATCC 31090; R238H) (protein)
chain: B1 chain with M232K, R238H
notes: as for B1
B3: 2,5-diketo-D-gluconic acid reductase A (Corynebacterium sp., wild type SEQ ID NO:1) variant K232Q (Corynebacterium sp. ATCC 31090; K232Q) (protein)
chain: B1 chain with M232Q
notes: as for B1
B4: 2,5-diketo-D-gluconic acid reductase A (Corynebacterium sp., wild type SEQ ID NO:1) variant R238E (Corynebacterium sp. ATCC 31090; R238E) (protein)
chain: B1 chain with M232K, R238E
notes: as for B1
B5: 2,5-diketo-D-gluconic acid reductase A (Corynebacterium sp., wild type SEQ ID NO:1) variant R235T (Corynebacterium sp. ATCC 31090; R235T) (protein)
chain: B1 chain with M232K, R235T
notes: as for B1
B6: 2,5-diketo-D-gluconic acid reductase A (Corynebacterium sp., wild type SEQ ID NO:1) variant K232G (Corynebacterium sp. ATCC 31090; K232G) (protein)
chain: B1 chain with M232G
notes: as for B1
B7: 2,5-diketo-D-gluconic acid reductase A, wild type, Corynebacterium sp. (ATCC Strain No. 31090; Genbank Accession No. 4699594; SEQ ID NO:1) (Corynebacterium sp. … (protein)
chain: B1 chain with M232K
notes: as for B1
B8: 2,5-diketo-D-gluconic acid reductase A (Corynebacterium sp., wild type SEQ ID NO:1) variant K232S (Corynebacterium sp. ATCC 31090; K232S) (protein)
chain: B1 chain with M232S
notes: as for B1
B9: 2,5-diketo-D-gluconic acid reductase A (Corynebacterium sp., wild type SEQ ID NO:1) variant R235G (Corynebacterium sp. ATCC 31090; R235G) (protein)
chain: B1 chain with M232K, R235G
notes: as for B1

Key:
[1] = substrate: O=C(O)C(=O)[C@@H](O)[C@H](O)C(=O)CO; assay: purified protein, by the assay type; type: biochemical, Corynebacterium sp.; conditions: other: Kb = Michaelis constant for 2,5-diketo-D-gluconic acid, cofactor NADH, pH 7.0, 25° C
Procedure: Cells containing plasmids for some of the mutant reductases were grown up on a 1 liter scale using a 10 ml inoculum from a saturated overnight culture. The cells were grown until absorbance of the culture at 600 nm was approximately 1.0. The cells were then induced by adding IPTG to a final concentration of 1 mM. The cells were harvested after growth at 37° C. for 4 hours. The cells were then pelleted by centrifugation and frozen for later use. At a later date, cells were thawed and lysed with the Bug Buster detergent (Novagen) containing Complete Protease Inhibitor Cocktail Tablets (Roche). […]
These reactions were performed in 96-well microtiter plates using a SpectraMax 190 plate reader (Molecular Devices). […] Initial rate data was collected in each well, and a standard curve was generated each day in order to correlate the change in absorbance of the reaction to a change in concentration of cofactors. […]

[2] = substrate: O=C(O)C(=O)[C@@H](O)[C@H](O)C(=O)CO; assay: purified protein, by the assay type; type: biochemical, Corynebacterium sp.; conditions: other: Kb = Michaelis constant for 2,5-diketo-D-gluconic acid, cofactor NADH, pH 7.0, 25° C; remark: listed apart in the source
Procedure: The activities of the purified enzymes were assayed in 96-well microtiter plates on a plate reader.
Equation (1) is: [formula]
B=2,5-diketo-D-gluconic acid concentration;
Kb=Michaelis Constant for 2,5-diketo-D-gluconic acid;
Kia=Dissociation Constant for NADH;
Et=Total enzyme concentration.
However, the parameters could not be fit in this model with any accuracy, due to the large apparent value of KM for 2,5-diketo-D-gluconic acid, and the low concentration of 2,5-diketo-D-gluconic acid that was used. The 2,5-diketo-D-gluconic acid concentrations were not large enough to saturate the enzyme, so a further mathematical simplification was required. Preliminary fitting of the model indicated both kcat and Kb to be very large in comparison to Ka and Kia Therefore, the rate equation was simplified to the following equation (2): [formula]
This equation is only valid when B<<Kb.
This equation was then used to fit the kinetic data, with much better results.
Other comparisons can also be made between the different mutants using these parameters. […]
Cells containing plasmids for some of the mutant reductases were grown up on a 1 liter scale using a 10 ml inoculum from a saturated overnight culture. The cells were grown until absorbance of the culture at 600 nm was approximately 1.0. The cells were then induced by adding IPTG to a final concentration of 1 mM. The cells were harvested after growth at 37° C. for 4 hours. The cells were then pelleted by centrifugation and frozen for later use. At a later date, cells were thawed and lysed with the Bug Buster detergent (Novagen) containing Complete Protease Inhibitor Cocktail Tablets (Roche). The pH was lowered to 5.5 with 20 mM sodium acetate (NaOAc) and NaCl was added to a final concentration of 0.15 M. After 10 minutes with the detergent, the cell debris was removed by centrifugation, and the supernatant was loaded onto disposable chromatography columns containing a 10 ml bed volume of DEAE Cellulose (Sigma) for a batch weak ion exchange step. The resin was washed with 0.15 M NaCl, still in the presence of NaOAc, pH 5.5. The bound proteins were then eluted by two washes with 0.5 M NaCl. The eluted material was then diluted back to 0.15 M NaCl by the addition of more 20 mM NaOAc buffer. This was then loaded onto a 4.6 mmD/100mml PEEK column (PerSeptive Biosystems) containing 50 μm DEAE Ceramic HyperD F resin (BioSepra) using an FPLC system. The high performance resin was washed with 0.1 M NaCl and the bound proteins were eluted using a linear salt gradient up to 0.4 M NaCl. Active fractions were pooled and the pH was raised to 7.0 using 50 mM bis-Tris. The pooled fractions were then concentrated by ultrafiltration in a stirred cell unit using a polyethersulfone membrane with a 10,000 MW cut-off (Millipore). The concentrate was loaded onto a Superdex-75 gel filtration column (Pharmacia) using 50 mM bis-Tris pH 7.0 with an FPLC system. The active fractions were again pooled. A small sample from the pooled fractions was electrophoresed on a polyacrylamide gel in the presence of SDS in order to insure homogeneity of the final product.
NADPH and NADH were prepared fresh for each use in kinetic measurements. These reactions were performed in 96-well microtiter plates using a SpectraMax 190 plate reader (Molecular Devices). Varying amounts of cofactor and substrate were added to the wells and reaction was initiated by the addition of the mutant enzyme. The final volume of each reaction was 200 μl, the reactions were buffered with 50 mM bis-Tris pH 7.0, and the temperature was held at 25° C. […] Initial rate data was collected in each well, and a standard curve was generated each day in order to correlate the change in absorbance of the reaction to a change in concentration of cofactors. All measurements were performed in triplicate (at least) and the runs were averaged for use in kinetic modeling.

Row | Protein | kcat/Km [1] [min^−1/mm^−1] | kcat/Km [2] [min^−1/mm^−1]
1 | B1 | 0.593 ± 0.023 | 
2 | B2 |  | 3.87 ± 0.13
3 | B3 | 0.634 ± 0.037 | 
4 | B4 |  | 1.49 ± 0.24
5 | B5 |  | 1.34 ± 0.28
6 | B6 |  | 0.874 ± 0.028
7 | B7 |  | 0.724 ± 0.026
8 | B8 |  | 0.318 ± 0.018
9 | B9 |  | 3.58 ± 0.023
